We go through one molecule from paper PMC10871540 (Science Advances, 2024).

The test deals with T1, UNC-40 ECD (C. elegans, UniProt G5EF96 23-1082).
T1 sequence (looked up): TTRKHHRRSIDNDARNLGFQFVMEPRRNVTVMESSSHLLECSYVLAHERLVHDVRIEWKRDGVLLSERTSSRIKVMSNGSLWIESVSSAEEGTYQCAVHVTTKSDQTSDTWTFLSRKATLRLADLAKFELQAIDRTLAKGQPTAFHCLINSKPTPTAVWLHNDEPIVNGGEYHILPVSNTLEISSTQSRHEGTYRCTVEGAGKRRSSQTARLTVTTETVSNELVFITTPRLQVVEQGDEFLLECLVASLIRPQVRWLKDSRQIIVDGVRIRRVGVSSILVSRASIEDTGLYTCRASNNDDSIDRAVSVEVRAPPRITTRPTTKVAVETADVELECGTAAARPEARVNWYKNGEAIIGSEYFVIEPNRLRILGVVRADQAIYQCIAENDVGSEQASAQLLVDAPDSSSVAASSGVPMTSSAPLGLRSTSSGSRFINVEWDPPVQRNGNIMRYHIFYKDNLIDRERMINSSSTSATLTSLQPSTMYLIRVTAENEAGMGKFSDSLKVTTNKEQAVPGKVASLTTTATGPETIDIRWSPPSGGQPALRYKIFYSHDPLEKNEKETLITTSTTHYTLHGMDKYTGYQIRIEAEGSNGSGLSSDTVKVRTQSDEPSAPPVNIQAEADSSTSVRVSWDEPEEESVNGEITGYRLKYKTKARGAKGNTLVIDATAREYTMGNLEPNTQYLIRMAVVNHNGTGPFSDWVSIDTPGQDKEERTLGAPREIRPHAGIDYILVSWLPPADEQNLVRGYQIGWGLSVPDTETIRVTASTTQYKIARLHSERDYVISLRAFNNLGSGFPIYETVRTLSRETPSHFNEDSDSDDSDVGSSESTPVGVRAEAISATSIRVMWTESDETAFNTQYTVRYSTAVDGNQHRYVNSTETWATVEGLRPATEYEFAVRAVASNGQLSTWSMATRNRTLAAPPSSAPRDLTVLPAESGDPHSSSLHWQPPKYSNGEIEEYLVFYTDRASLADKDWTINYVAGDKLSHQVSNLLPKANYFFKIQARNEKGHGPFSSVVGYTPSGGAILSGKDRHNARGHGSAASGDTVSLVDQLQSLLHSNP
As to the kind of experiment: SEC.

B1: UNC-6ΔC (ligand)
chain: not shown
As for B1, the binding result was “binds”.
